T1: Suc-AAPF-pNA
T1 chain: AAPF

T2: Suc-AAPV-pNA
T2 chain: AAPV

T3: Suc-AAPK-pNA
T3 chain: AAPK

T4: Suc-AAPE-pNA
T4 chain: AAPE

T5: Suc-AAPA-pNA
T5 chain: AAPA

T6: Suc-AAPR-pNA
T6 chain: AAPR

T7: Suc-AAPD-pNA
T7 chain: AAPD

T8: Suc-AAPL-pNA
T8 chain: AAPL

T9: Suc-AAPM-pNA
T9 chain: AAPM

T10: Suc-AAPI-pNA
T10 chain: AAPI

B1: Subtilisin Carlsberg from Bacillus licheniformis (protein)
chain: AQTVPYGIPLIKADKVQAQGFKGANVKVAVLDTGIQASHPDLNVVGGASFVAGEAYNTDGNGHGTHVAGTVAALDNTTGVLGVAPSVSLYAVKVLNSSGSGSYSGIVSGIEWATTNGMDVINMSLGGASGSTAMKQAVDNAYARGVVVVAAAGNSGSSGNTNTIGYPAKYDSVIAVGAVDSNSNRASFSSVGAELEVMAPGAGVYSTYPTNTYATLNGTSMASPHVAGAAALILSKHPNLSASQVRNRLSSTATYLGSSFYYGKGLINVEAAAQ
B2: Subtilisin 309 variant from Bacillus clausii (protein)
chain: AQSVPWGIERVQAPAAHNRGLTGSGVKVAVLDTGISTHPDLRIRGGASFVPGEPSTQDGNGHGTHVAGTIAALDNSIGVLGVAPSEALYAVKVLGASGSGSVSSIAQGLEWAGNNGMHVANLSLGSPSPSATLEQAVNSATSRGVLVVAASGNSGAGSISYPARYANAMAVGATDQNNNRASFSQYGAGLDIVAPGVNILSTWPGSTYASLNGTSMATPHVAGAAALVKQKNPSWSNVQIRNHLKNTATSLGDTWEYGSGLVNAEAATR
B3: Thermostable alkaline protease BH0855 from Bacillus halodurans (protein)
chain: QTVPWGISFINTQQAHNRGIFGNGARVAVLDTGIASHPDLRIAGGASFISSEPSYHDNNGHGTHVAGTIAALNNSIGVLGVAPSADLYAVKVLDRNGSGSLASVAQGIEWAINNNMHIINMSLGSTSGSSTLELAVNRANNAGILLVGAAGNTGRQGVNYPARYSGVMAVAAVDQNGQRASFSTYGPEIEISAPGVNVNSTYTGNRYVSLSGTSMATPHVAGVAALVKSRYPSYTNNQIRQRINQTATYLGSPSLYGNGLVHAGRATQ
B4: Serine protease bppB from Bacillus pumilus JA16 (protein)
chain: VVIGDDGRTKVTNTRVAPYNSIAYITFGGSSCTGTLIAPNKILTNGHCVYNTATRSYSAKGSVYPGMNDSTAVNGSANMTEFYVPSGYINTGASQYDFAVIKTDTNIGNTVGYRSIRQVTNLTGTTIKISGYPGDKMRSTGKVSQWEMSGPVTREDTNLAYYTIDTFSGNSGSAMLDQNQQIVGVHNAGYSNGTINGGPKATAAFVEFINYAKAQ
B5: Serine protease from Nocardiopsis sp NRRL 18262 (protein)
chain: ADIIGGLAYTMGGRCSVGFAATNAAGQPGFVTAGHCGRVGTQVTIGNGRGVFEQSVFPGNDAAFVRGTSNFTLTNLVSRYNTGGYATVAGHNQAPIGSSVCRSGSTTGWHCGTIQARGQSVSYPEGTVTNMTRTTVCAEPGDSGGSYISGTQAQGVTSGGSGNCRTGGTTFYQEVTPMVNSWGVRLRT
B6: Glutamyl endopeptidase blaSE from Bacillus licheniformis (protein)
chain: SVIGSDDRTRVTNTTAYPYRAIVHISSSIGSCTGWMIGPKTVATAGHCIYDTSSGSFAGTATVSPGRNGTSYPYGSVKSTRYFIPSGWRSGNTNYDYGAIELSEPIGNTVGYFGYSYTTSSLVGTTVTISGYPGDKTAGTQWQHSGPIAISETYKLQYAMDTYGGQSGSPVFEQSSSRTNCSGPCSLAVHTNGVYGGSSYNRGTRITKEVFDNLTNWKNSAQ
B7: Glutamyl endopeptidase II sprE from Streptomyces griseus (protein)
chain: VLGGGAIYGGGSRCSAAFNVTKGGARYFVTAGHCTNISANWSASSGGSVVGVREGTSFPTNDYGIVRYTDGSSPAGTVDLYNGSTQDISSAANAVVGQAIKKSGSTTKVTSGTVTAVNVTVNYGDGPVYNMVRTTACSAGGDSGGAHFAGSVALGIHSGSSGCSGTAGSAIHQPVTEALSAYGVTVY
B8: Trypsin from Fusarium oxysporum (protein)
chain: IVGGTSASAGDFPFIVSISRNGGPWCGGSLLNANTVLTAAHCVSGYAQSGFQIRAGSLSRTSGGITSSLSSVRVHPSYSGNNNDLAILKLSTSIPSGGNIGYARLAASGSDPVAGSSATVAGWGATSEGGSSTPVNLLKVTVPIVSRATCRAQYGTSAITNQMFCAGVSSGGKDSCQGDSGGPIVDSSNTLIGAVSWGNGCARPNYSGVYASVGALRSFIDTYA
B9: Lysyl endopeptidase from Achromobacter lyticus (protein)
chain: GVSGSCNIDVVCPEGDGRRDIIRAVGAYSKSGTLACTGSLVNNTANDRKMYFLTAHHCGMGTASTAASIVVYWNYQNSTCRAPNTPASGANGDGSMSQTQSGSTVKATYATSDFTLLELNNAANPAFNLFWAGWDRRDQNYPGAIAIHHPNVAEKRISNSTSPTSFVAWGGGAGTTHLNVQWQPSGGVTEPGSSGSPIYSPEKRVLGQLHGGPSSCSATGTNRSDQYGRVFTSWTGGGAAASRLSDWLDPASTGAQFIDGLDSGGGTP

Target: T1, Suc-AAPF-pNA
Conditions: scale: relative to the substrate with the highest activity

Protein	relative activity (initial increase in OD405)
B1	1
B2	1
B3	0.59
B4	0
B5	1
B6	0.0032
B7	0
B8	0.0001
B9	0.0041

Target: T2, Suc-AAPV-pNA
Conditions: scale: relative to the substrate with the highest activity

Protein	relative activity (initial increase in OD405)
B1	0.0007
B2	0.0001
B3	0.0008
B4	0
B5	0.0121
B6	0.0001
B7	0
B8	0
B9	0.0007

Target: T3, Suc-AAPK-pNA
Conditions: scale: relative to the substrate with the highest activity

Protein	relative activity (initial increase in OD405)
B1	0.0155
B2	0.0011
B3	0.0038
B4	0.0003
B5	0.0778
B6	0.0001
B7	0
B8	0.84
B9	1

Target: T4, Suc-AAPE-pNA
Conditions: not given

Protein	Glutamyl endopeptidase ratio (GR)
B1	0.003
B2	0.003
B3	0.008
B4	234
B5	< 0.001
B6	309
B7	6
B8	< 0.001
B9	< 0.001

Same assay, conditions: scale: relative to the substrate with the highest activity

Protein	relative activity (initial increase in OD405)
B1	0.0033
B2	0.0025
B3	0.0083
B4	1
B5	0.0004
B6	1
B7	1
B8	0.0001
B9	0

Target: T5, Suc-AAPA-pNA
Conditions: scale: relative to the substrate with the highest activity

Protein	relative activity (initial increase in OD405)
B1	0.0222
B2	0.0566
B3	0.088
B4	0
B5	0.0001
B6	0.0001
B7	0
B8	0
B9	0.0005

Target: T6, Suc-AAPR-pNA
Conditions: scale: relative to the substrate with the highest activity

Protein	relative activity (initial increase in OD405)
B1	0.019
B2	0.0002
B3	0.0069
B4	0
B5	0.172
B6	0.0001
B7	0.0001
B8	1
B9	0.0005

Target: T7, Suc-AAPD-pNA
Conditions: scale: relative to the substrate with the highest activity

Protein	relative activity (initial increase in OD405)
B1	0.0008
B2	0.0001
B3	0.0053
B4	0.0043
B5	0.0028
B6	0.002
B7	0.158
B8	0
B9	0.0006

Target: T8, Suc-AAPL-pNA
Conditions: scale: relative to the substrate with the highest activity

Protein	relative activity (initial increase in OD405)
B1	0.807
B2	0.17
B3	1
B4	0.0005
B5	0.185
B6	0.0027
B7	0
B8	0
B9	0.0019

Target: T9, Suc-AAPM-pNA
Conditions: scale: relative to the substrate with the highest activity

Protein	relative activity (initial increase in OD405)
B1	0.282
B2	0.861
B3	0.85
B4	0
B5	0.0003
B6	0.0008
B7	0.0001
B8	0
B9	0

Target: T10, Suc-AAPI-pNA
Conditions: scale: relative to the substrate with the highest activity

Protein	relative activity (initial increase in OD405)
B1	0.0005
B2	0.0003
B3	0.0005
B4	0
B5	0.0004
B6	0
B7	0
B8	0
B9	0.0017

target: type II (60-70 kDa) keratins of the ORS; conditions: not given

Protein	hydrolysis of ORS tissue protein, SDS-PAGE with Coomassie Blue
B6	5 ppm HZ-2 fully degraded type I and type II during the experiment

Reference: US20230240966
